In the supplement of paper PMC10567573:

B1: PTPN9 (parent)
chain: IDFLRVVRNQQSLAVSNMGARSKG
B2: CAMK2D (parent)
chain: IVRLHDSISEEGFHYLVFDLVTGG

Variants of: B1
Assay: protein stability index of a GFP-peptide fusion (GPS, HEK-293T) (PSI 1-6); higher = more stable
Details: c terminus: a fixed tail appended
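Further: lentivirally expressed fusions sorted by FACS into six bins by GFP to DsRed ratio, PSI derived from sequencing read proportions per bin multiplied by bin number.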

| Variant | protein stability index |
| --- | --- |
| V15I | 1.97 |
| V15S | 2.49 |
| V15D | 2.52 |
| V15A | 2.82 |
| V15G | 2.83 |
| V15H | 2.56 |
| V15W | 2.25 |
| N17Q | 2.42 |
| N17P | 2.27 |
| N17R | 2.45 |
| N17F | 2.12 |
| N17I | 2.09 |
| N17H | 2.9 |
| N17Y | 1.93 |
| Q10T | 2.4 |
| Q10L | 2.2 |
| Q10S | 1.43 |
| Q10A | 2.06 |
| G19H | 2.57 |
| G19E | 2.91 |
| G19W | 2.66 |
| G19C | 2.24 |
| G19Q | 2.96 |
| R21I | 2.14 |

| Variant | protein stability index |
| --- | --- |
| R21M | 1.77 |
| R21Q | 2.18 |
| R21G | 3.16 |
| R21K | 2.4 |
| R21A | 2.6 |
| S22D | 2.69 |
| S22K | 2.46 |
| S22F | 2.24 |
| S22P | 2.4 |
| S22Q | 2.86 |
| S22L | 2.07 |
| R8M | 1.46 |
| R8G | 2.37 |
| R8P | 2.51 |
| R8E | 3 |
| I1S | 3.1 |
| I1R | 3.35 |
| I1K | 3.59 |
| I1T | 3.43 |
| I1A | 3.18 |
| I1Y | 3.47 |
| I1L | 2.95 |
| I1H | 3.96 |
| S16R | 2.78 |

| Variant | protein stability index |
| --- | --- |
| S16L | 1.89 |
| S16K | 2.59 |
| R5M | 2.81 |
| R5T | 2.45 |
| R5S | 3 |
| R5F | 2.88 |
| R5L | 2.38 |
| R5V | 1.83 |
| R5H | 3.15 |
| R5A | 2.06 |
| R5G | 2.81 |
| V6I | 1.99 |
| V6Q | 2.8 |
| V6M | 1.99 |
| V6E | 3.36 |
| S12L | 2.31 |
| S12H | 2.41 |
| S12F | 2.26 |
| S12G | 2.48 |
| S12C | 1.89 |
| M18R | 3.35 |
| M18L | 2.67 |
| M18W | 2.03 |
| M18A | 3.02 |

| Variant | protein stability index |
| --- | --- |
| M18V | 2.32 |
| G24Q | 2.72 |
| G24S | 2.28 |
| G24A | 2.55 |
| G24E | 2.95 |
| G24V | 2.45 |
| G24R | 2.48 |
| L4I | 1.69 |
| L4K | 3.25 |
| L4A | 3.04 |
| L4S | 3.6 |
| K23A | 2.01 |
| K23G | 1.96 |
| K23L | 1.72 |
| K23C | 1.88 |
| K23H | 1.75 |
| D2L | 1.53 |
| D2E | 2.54 |
| D2R | 2.03 |
| D2S | 2.55 |
| D2A | 1.82 |
| D2M | 1.38 |
| L13V | 2.85 |
| L13M | 2.51 |

| Variant | protein stability index |
| --- | --- |
| L13A | 2.73 |
| L13S | 2.7 |
| L13P | 2.96 |
| L13K | 2.75 |
| L13N | 3.2 |
| L13Y | 2.57 |
| L13H | 2.45 |
| N9G | 2.3 |
| N9S | 2.15 |
| N9P | 2.78 |
| N9I | 1.67 |
| N9Q | 2.14 |
| N9H | 2.57 |
| F3P | 4.2 |
| F3Q | 3.89 |
| F3M | 2.75 |
| F3H | 4.36 |
| F3T | 4.5 |
| F3Y | 2.4 |
| A14I | 1.8 |
| A14K | 2.13 |
| A14G | 2.3 |
| A14T | 2.64 |
| A14V | 2.22 |

| Variant | protein stability index |
| --- | --- |
| A14M | 2.66 |
| A14W | 2.39 |
| A14F | 2.23 |
| A14P | 2.7 |
| A20L | 2.21 |
| A20T | 2.06 |
| A20Q | 2.25 |
| A20S | 2.75 |
| A20M | 2.32 |
| A20E | 1.92 |
| Q11T | 2.29 |
| Q11H | 2.26 |
| Q11P | 2.37 |
| V7H | 3.26 |
| V7K | 2.66 |
| V7T | 2.98 |
| V7L | 1.85 |
| V7I | 2.41 |
| V7C | 3.07 |

Variants of: B2
Assay: as above
Details: c terminus: a fixed tail appended

| Variant | protein stability index |
| --- | --- |
| G12E | 2.48 |
| G12W | 3.89 |
| G12A | 2.25 |
| G12V | 3.05 |
| G12I | 2.16 |
| G12N | 2.04 |
| G12S | 3.25 |
| G12T | 3.32 |
| G12Y | 3.96 |
| G12P | 2.31 |
| E11D | 3.32 |
| E11F | 3.42 |
| E11R | 3.9 |
| E11T | 2.08 |
| E11Q | 2.06 |
| E11Y | 3.26 |
| E11I | 1.56 |
| E11N | 3.39 |
| E11P | 2.13 |
| E11L | 3.7 |
| E11A | 2.79 |
| Y15E | 1.7 |
| Y15N | 2.46 |
| Y15F | 2.63 |
| Y15S | 1.06 |

| Variant | protein stability index |
| --- | --- |
| Y15H | 1.2 |
| Y15K | 2.76 |
| Y15W | 2.7 |
| Y15D | 1.89 |
| Y15I | 2.54 |
| Y15R | 1.21 |
| Y15P | 1.75 |
| Y15Q | 1.58 |
| Y15A | 2.98 |
| L16G | 2.17 |
| L16Y | 2.98 |
| L16N | 1.5 |
| L16I | 2.66 |
| L16S | 1.55 |
| L16C | 2.49 |
| L16T | 1.21 |
| L16D | 1.63 |
| L16F | 2.76 |
| L16A | 3.09 |
| L16E | 1.57 |
| L16R | 2.51 |
| L16Q | 2.04 |
| L16H | 1.39 |
| L16P | 1.74 |
| S7A | 3.35 |

| Variant | protein stability index |
| --- | --- |
| S7N | 3.29 |
| S7Y | 3.15 |
| S7M | 3.09 |
| S7E | 2.24 |
| S7G | 1.96 |
| S7Q | 2.4 |
| S7L | 2.56 |
| S7W | 2.25 |
| S7H | 3.68 |
| S7T | 3.19 |
| E10I | 3.06 |
| E10H | 3.04 |
| E10A | 3.84 |
| E10N | 4.11 |
| E10T | 3.29 |
| E10S | 2.15 |
| E10F | 2.4 |
| E10Y | 2.83 |
| E10R | 2.65 |
| E10K | 2.7 |
| E10M | 2.53 |
| I8Y | 3.84 |
| I8P | 3.04 |
| I8S | 3.33 |
| I8K | 2.4 |

| Variant | protein stability index |
| --- | --- |
| I8E | 1.44 |
| I8H | 3.29 |
| I8C | 2.85 |
| I8T | 2.61 |
| I8G | 1.64 |
| I8Q | 1.69 |
| I8A | 2.21 |
| I8N | 3.02 |
| I8R | 1.65 |
| D6A | 3.03 |
| D6M | 2.4 |
| D6P | 4.25 |
| D6C | 2.66 |
| D6T | 4.86 |
| D6N | 1.95 |
| I1F | 1.06 |
| I1E | 2.24 |
| I1N | 1.75 |
| I1H | 3.43 |
| I1S | 3.07 |
| I1P | 1.25 |
| I1V | 2.13 |
| I1G | 1.94 |
| I1M | 3.44 |
| I1T | 2.07 |

| Variant | protein stability index |
| --- | --- |
| I1K | 2.05 |
| V17T | 1.75 |
| V17L | 1 |
| V17Y | 3.27 |
| V17N | 1.85 |
| V17E | 1.69 |
| V17H | 2.93 |
| V17R | 2.13 |
| V17W | 2.39 |
| V17S | 3.19 |
| V17G | 3.58 |
| V17D | 1.46 |
| V17I | 2.58 |
| V17P | 2.04 |
| V17A | 2.78 |
| V17F | 2.39 |
| V17K | 2.56 |
| H5S | 3.02 |
| H5K | 4.72 |
| H5I | 3.99 |
| H5C | 3.23 |
| H5P | 3.91 |
| H5R | 2.39 |
| H5Y | 3.23 |
| H5N | 2.33 |

| Variant | protein stability index |
| --- | --- |
| H5F | 3.15 |
| H5D | 2.94 |
| V2M | 1.93 |
| V2Y | 3.12 |
| V2T | 2.52 |
| V2P | 1.46 |
| V2L | 2.69 |
| V2A | 2.29 |
| V2I | 3.28 |
| V2K | 1.51 |
| V2D | 1.79 |
| V2E | 2.3 |
| R3E | 2.25 |
| R3Y | 2.58 |
| R3V | 2.23 |
| R3H | 3.12 |
| R3Q | 2 |
| R3G | 2.41 |
| R3P | 2.28 |
| R3C | 2.03 |
| R3S | 1.57 |
| H14D | 1.85 |
| H14M | 2.25 |
| H14A | 2.32 |
| H14E | 1.83 |

| Variant | protein stability index |
| --- | --- |
| H14Y | 2.71 |
| H14P | 2.79 |
| H14C | 2.29 |
| H14K | 2.2 |
| F13L | 2.02 |
| F13D | 1.91 |
| F13Q | 1.37 |
| F13Y | 3.07 |
| F13K | 1.43 |
| F13W | 2.18 |
| F13P | 1.08 |
| F13E | 2.6 |
| F13T | 3.34 |
| F13H | 1.62 |
| F13N | 2.2 |
| F13M | 2.71 |
| F13S | 3.27 |
| F13A | 1.76 |
| L4S | 1.9 |
| L4H | 2.53 |
| L4Q | 1.69 |
| L4D | 1.8 |
| L4K | 3.71 |
| L4N | 1.87 |
| L4F | 2.4 |

| Variant | protein stability index |
| --- | --- |
| L4A | 2.4 |
| L4R | 1.62 |
| L4W | 1.57 |
| L4T | 1.29 |
| L4E | 1.69 |
| L4P | 2.39 |
| S9Y | 3.58 |
| S9P | 5.65 |
| S9G | 1.99 |
| S9F | 1.94 |
| S9M | 3.39 |
| S9K | 2.84 |
| S9Q | 4.38 |
| S9D | 2.36 |
| S9L | 4.27 |
| S9E | 3.35 |
| S9N | 2.94 |
| F18A | 2.33 |
| F18C | 1.32 |
| F18D | 2.67 |
